The DeepSol protein solubility set

Experiment: soluble on expression in E. coli; label from the status in PepcDB or PDB records
In the case of “MNILKHFPSYVGPSKIRTLVIPIGHWTRKEFNNAVQKLSEFNEIHLSDVTPIDSPIFTPQGFPHGKLFFDFLTIDHDDALELFLYDFEPFRKTFVIIGLVNDYSDPLTNLNFMKEKYPTLISPNLVYASSTPTKELEQTIDTMENVFASSPDMQKNIETIMCDIARNFLTALNSYYSSYKHVTLRSPGAIGGNAVLKTTLIRQNSYTSSSSSTPMSAVQSSVSSSSKAGSVTTASKRLSSFEMTTNSLKRSASLKLATTLSTSENRSQQKSLGRQMKILGNFQLLAGRYVDALNSFVDAITTLYKVRDYLWLGSALDGISICFLLLSYLGLSYQIPQIVSLICPVEKLNFESSSTGISPVDSNSKATASTTASSTPRNSISIAAMQSPRNSIMSLSAPALNIDVENINLPLLIKCISDKVLYYYDLSLMHNSEYAPQVVYCEFLLKTLTFMTSCYKSSEFSKDVLDNIVKNQHRALSDIPNSPMFPRFEVYFYSNKLFELQLKEMQVEAQIKIYSTMAEVYRLLGYKRKQLFVLRLLMVALLATPNKIAWHPDYRTLIDTIIELLNINESEAKINVDDPSQSTWLILQKKILQLCIKVSRKINDFEYVAKFSSILITKYTHLLNQSEQDALFKEYIQPSITNESITSYWDPFILREVVINRILDSDPTSNEIPLESDVSSLESLENRQKTQDINPQEVFNPFKRVQPTSFVSNNSTKVPILVFLVGDKAEFTCRVQNPFKFDFTINDIQLDEEISEFCEIDRKAVSYSGPYNVKAESIRSITLPLIIKKPTYKKIYEISCLKISILKLPLQKFDIINDSRRSNPVEEEAEYSKCIYGKLKIKILPEQPQLELLSTSKMTRNSWMMLDGTKTDFHITVRNKSLSCAINHIKIIPMNNIEQMLKPDYWKKMPPDDLYIMEKQLDWLSKSCVRIIKLPTVIKPNETITFDLELDNTAVPFNFTGFDLLIEYGMSATDESCIYLKKLSIPYEVTLRRTIEVPSMDIIPLNELFSSQVENVDWIEYVMSKIRAESNLHSRDFILLLLDFRNSWIDGIKLNVQFEDFTSNEYHVEASHTSRIIVPIKKIDYKKYNFENTPIPRIYPGRQFIQSGLNEEQTIEMRQKFWCREHIISKLKCNWKLTTDQSVTGSVDFNKFIEKFDHKMVYTIYPGRLFYGVQLLLDEPKVKVGEIINLKIITEPTSTCRRKQNSTVNFLDIVIFDSKTSKILPRSNRRILYNGSLTKPISTTKVSEINLEIIPIEKGRYEFSVCISKSNNQDGIIQFDSENVILSVI”, the “soluble on expression in E. coli” value is reported as “soluble”. For “MNILLFGKTGQVGWELQRSLAPVGNLIALDVHSKEFCGDFSNPKGVAETVRKLRPDVIVNAAAHTAVDKAESEPELAQLLNATSVEAIAKAANETGAWVVHYSTDYVFPGTGDIPWQETDATSPLNVYGKTKLAGEKALQDNCPKHLIFRTSWVYAGKGNNFAKTMLRLAKERQTLSVINDQYGAPTGAELLADCTAHAIRVALNKPEVAGLYHLVAGGTTTWHDYAALVFDEARKAGITLALTELNAVPTSAYPTPASRPGNSRLNTEKFQRNFDLILPQWELGVKRMLTEMFTTTTI”, the “soluble on expression in E. coli” value was “soluble”. For “MNILQFNVRLAEGGAAGVALDLHLRALQKGLTSHFVYGYGKGGKKSVSHHRYPQVIKQTPRGTAIANIALFRFLNRDLFGNLDNLYRTVIQTSGPLVLHFHVLHSYWLNLADIVTFCEKVKAQKPDVTLVWTLHDHWSVTGRCAFTDGCEGWKSGCQKCPTLSNYPPVRVDRAHQLIDGKRQRFRDMLRLGCRFISPSQHVAEAFNSVYGAGRCQIINNGIDLATEAILAQLSPVPLNPGKPRIAIVAHDLRYDGKTDQRLVHDMMALGEKIELHTFGKFSPFTGQNVVNHGFETDKRKLMSALNEMDALVFSSRVDNYPLILCEALSIGVPVIATHSEAAQEVLAKSGGQTFAATDVLRLAQRRKPEIAQAVFGATLDAFRMRSRVAYSGQQMLEEYVSFYQNLLEHHHHHH”, the “soluble on expression in E. coli” value was “not soluble”. With “MNILQFNVRLAEGGAAGVALDLHQRALQQGLASHFVYGYGKGGKESVSHQNYPQVIKHTPRMTAMANIALFRLFNRDLFGNFNELYRTITRTAGPVVLHFHVLHSYWLNLKSVVRFCEKVKNHKPDVTLVWTLHDHWSVTGRCAFTDGCEGWKTGCQKCPTLNNYPPVKIDRAHQLVAGKRQLFREMLALGCQFISPSQHVADAFNSLYGPGRCRIINNGIDMATEAILADLPPVRETQGKPKIAVVAHDLRYDGKTNQQLVREMMALGDKIELHTFGKFSPFTAGNVVNHGFETDKRKLMSALNQMDALVFSSRVDNYPLILCEALSIGVPVIATHSDAAREVLQKSGGKTVSEEEVLQLVQLSKPEIAQAIFGTTLAEFSQRSRAAYSGQQMLEEYVNFYQNL” the “soluble on expression in E. coli” value was “soluble”. For “MNILTLMETFSAVVEAGSFTGAAEKLGLSKSFVSKQVSTLEVELGCRLLYRTTRTLSLSDEGSQFYNHCKIIMAEAENARAEVMDRQGAPRGKIRMTIPQSLIISGFGQLLIDFQLQYPEIKLEVIASGRIEDLVKEGIDIALRVGQLEDSSLISRRLMDCTFQVVASSDYIKKWGEPFQPADLMQHNCLIYGDSKINKGWPFRSPSGESITVKAKGNFISNDGGLVVEGMLNGLGIGFGPSFLFNEHVEKGRLKLLLSDYYQPPTAISALYPLNRNLSRRIRLLIDYLSERLSV”, the “soluble on expression in E. coli” value was “not soluble”. For “MNIQITFTDSVRQGTSAKGNPYTFQEGFLHLEDKPHPLQCQFFVESVIPAGSYQVPYRINVNNGRPELAFDFKAMKRA”, the “soluble on expression in E. coli” value was “soluble”. In the case of “MNIQKMYTAVDVHVNGEAFRVMKDVPCKYYYSLEQLNEQFSGELAEEMKLLLNEPRGFIGLNGCIVVPSIHNEVDAAVLFFNHEGSIPLHYGGIVAVITMLLESGYLKKRESNQYKIETLSGIFLVHAYVENDEVISVSFESKLCYLIEENLQVGNVSYSLIQADKVYAVVEKGAYSPEIRVENISELKRWGEATLQAIQKQSLIKRLILVDPSQKEKNHIKSITFHEDNFIVRSPGFVSTIVSYVHALFKNDYMADKPFKNESIFNSFITVEKVKKEELGYIFRFESRGFITGMQTFLLDPTDPFPAGFLLKLEHHHHHH”, the “soluble on expression in E. coli” value is reported as “not soluble”. With “MNIREPPDVVIFCELIYGAAITCLKKFFLRDVFKIFITSHKANIDLMDVVIKSFTDSTNSGKLSKAWAHAQNCHTNFYELKNMKKKLKQNILKSVSEMNNIIKKADIDMINNNLKPFLKQMEKLPTKKTVTIGNESFEYNKTASWYN” the “soluble on expression in E. coli” value was “not soluble”. For “MNISYIPEHIEQLTIMNVPEYYKINDNHAFIVRSKAETDFWLKTHYGFEVMNGHVFYNEMMTDFQAEVQLRMNPNSKFDQAGLFVMISENCWLKTSLEYIPEGPSHLGAVVTNNGYSDWSTQDYPTEAAKQQLRFRIIRKRGDYTIYVKKRHQWEQIRIAHLMEDIGNEPIKIGFYTCSPSKNKGFETEFLHFTIEELLEHHHHHH”, the “soluble on expression in E. coli” value was “soluble”. For “MNITKIDWQKVNGLLPVIIQNISTREVLMLGYMNEEALTKTIKERKVTFFSRTKQRLWTKGEISGNFLNVEEMSLDCDNDTLLILVDPIGATCHTGEYSCFHQFTSPQSENKKQQFANWAWFIKLEQHLKEKKNADPSNSYTATLHAKGTKKIAQKVGEEGVETALAAVAQDKAEVISEATDLVYHLTVLLHNQDLQWYEIIAKLQERHQGIGLHPEGGNK”, the “soluble on expression in E. coli” value was “soluble”. For “MNIYTDKKVVAVGGGHGLGRMLAALKDFGSNATGIVATTDNGGSTGRIRHCQGGIAWGDTRNCINQLITEPSISSMMFEYRFKGTGELDGHNLGNLMLTALDNLSVRPLDAINLIRNMLKVDVNILPMSEHPSDLSALSVNGQWVTGETNVDEMETDLRRLDLSPEVPATKEAVTALAEADAIILGPGSFLTSIMPPLLLPELGKAIAANRKAKVIFVANLSPEYGPAGRMSMAQKLEWCERACQGRRIDVVLAEETDQKVLEQWNVVTEPLASTNRDWRHDRDKLKAAIENQLLTKLEHHHHHH”, the “soluble on expression in E. coli” value was “soluble”. With “MNKEITFDKLPEAVTYLTEQVSAIKEMVSALHPPVPEEKSLIGIDEACVIIQKAKPTIYALVRKGIVPAYKRGKKLYFYKEELLQWVESGRKGATTAISSEEQLAMMRQEVRRKPKSIK” the “soluble on expression in E. coli” value was “not soluble”. With “MNKFVRLAAIAGLLLAGASYATDTTYRIDQLPQLRQEPEHATVSERVTSRFTRSHYRQFALDDQFSAKIFDRYLNMLDYSHNVLLASDVAQFADKKYSLDKELKSGQLDTPFALFNLAQKRRFERYQYALSVLDRPMVFTGNDTIDIDRAKAPWPSSEAELNALWDAKVKYDQLNLKLAGKTDKEIKETLTKRYQSAIKRLTQSNSEDVFQLIMNAFAREIDPHTNYLSPRNTEQFNTEMSLSLEGIGAVLQMDDDYTLINSMVPGGPAAKSKTIAVGDRVIGVGQAGKPMVDVIGWRLDDVVALIKGPKGSKVRLEILPAGKGTKPRTVTLTRERIRLEDRAVKMSVKTIGKERVGVLDIPGFYVGLTEDVKVQLQKLEKQNVSSIIIDLRSNGGGALTEAVSLSGLFIPSGPVVQVRDNNGKVREDSDTDGVVYYKGPLVVLVDRYSASASEIFAAAMQDYGRALIVGEPTFGKGTVQQYRSLNRIYDQMLRPEWPALGSLQYTIQKFYRVDGGSTQRKGVTPDIVMPTGVDPAETGENFEDNALPWDRINAASYTKTGDLKPWEPELLKNHAERIAANPEFQYIQKDIERYKALKDKRNIVSLNYAQREKENRDDDMTRLTRLNERFIREGKKPLKSLDDLPKDYQEPDPYLDETVNIALDLAHKEKAQPQIASRPVAAATAGATVK” the “soluble on expression in E. coli” value was “not soluble”. In the case of “MNKHQKPVLTGQRFKTRKRDEKEKFEPTVFRDTLVQGLNEAGDDLEAVAKFLDSTGSRLDYRRYADTLFDILVAGSMLAPGGTRIDDGDKTKMTNHCVFSANEDHETIRNYAQVFNKLIRRYKYLEKAFEDEMKKLLLFLKAFSEAEQTKLAMLSGILLGNGTLPATILTSLFTDSLVKEGIAASFAVKLFKAWMAEKDANSVTSSLRKANLDKRLLELFPVNRQSVDHFAKYFTDAGLKELSDFLRVQQSLGTRKELQKELQERLSQECPIKEVVLYVKEEMKRNDLPETAVIGLLWTCIMNAVEWNKKEELVAEQALKHLKQYAPLLAVFSSQGQSELVLLQKVQEYCYDNIHFMKAFQKIVVLFYKADVLSEEAILKWYKEAHAAKGKSVFLDQMKKFVEWLQNAEEESESEGEES”, the “soluble on expression in E. coli” value is reported as “soluble”. In the case of “MNKLQSYFIASVLYVMTPHAFAQGTVTIYLPGEQQTLSVGPVENVAQLVTQPQLRDRLWWPGALLTDSAVKAKALKDYQHVMAQLASWEAEADDDVAATIKSVRQQLLNLNITGRLPVKLDPDFVRVDENSNPPLVGNYTLYTVQRPVTITLLGAVSGAGQLPWQAGRSVTDYLQDHPRLAGADKNNVIVITPEGETVVAPVALWNKRHVEPPPGSQLWLGFSAHVLPEKYADLNDQIVSVLTQRVPD”, the “soluble on expression in E. coli” value is reported as “soluble”. For “MNKPLMSKATAVWLIDNTTLSFRQIADFCGMHELEVQGIADGDVATGVKGFDPVANNQLDAIEIEKGQRDPLYKMKLKFNPAAVGEEKRRGPRYTPLSKRQDRPAAILWLVKFHPELSDGAIAKLVGTTKPTIQSIRERTHWNIGSIQPIDPVALGLCRQTELDAAVQQAARRKAAEGVVMSDDERRKLVSTEQSLSMPDEPRMPSGLEQFGRSEEEKRPADFSDADSFFNLPHGDDADEEEDEDPARAAALEHHHHHH”, the “soluble on expression in E. coli” value was “soluble”.
